Patent EP4640225A1 (dated 2025)
One block for each binder: values may come before it.

Columns and labels:
Assay in all cases: activation reporter or marker
[1] = target: T1, KK-LC-1 peptide on HLA-B*15:01 (human)
T1 peptide: RQKRILVNL

[2] = target: T2, KK-LC-1 peptide on HLA-C*14:02 (human)
T2 peptide: RFQRNTGEM

[3] = target: T3, KK-LC-1 peptide on HLA-A*24:02 (human)
T3 peptide: RFQRNTGEM

[4] = target: T4, KK-LC-1 peptide on HLA-A*26:03 (human)
T4 peptide: RFQRNTGEM

[5] = target: T5, KK-LC-1 peptide on HLA-B*15:01 (human)
T5 peptide: RFQRNTGEM

[6] = target: T6, KK-LC-1 peptide on HLA-B*51:01 (human)
T6 peptide: RFQRNTGEM

[7] = target: T7, KK-LC-1 peptide on HLA-C*07:02 (human)
T7 peptide: RFQRNTGEM

B1: pt. 1-ex15TCR (TCR, V domains shown)
Valpha: AQKVTQAQTEISVVEKEDVTLDCVYETRDTTYYLFWYKQPPSGELVFLIRRNSFDEQNEISGRYSWNFQKSTSSFNFTITASQVVDSAVYFCALSDPEESGYALNFGKGTSLLVTP
Vbeta: DTGVSQDPRHKITKRGQNVTFRCDPISEHNRLYWYRQTLGQGPEFLTYFQNEAQLEKSRLLSDRFSAERPKGSFSTLEIQRTEQGDSAMYLCASSSNEKLFFGSGTQLSVL
- binding result [1]: recognises

B2: pt. 2-ex08TCR (TCR, V domains shown)
Valpha: GESVGLHLPTLSVQEGDNSIINCAYSNSASDYFIWYKQESGKGPQFIIDIRSNMDKRQGQRVTVLLNKTVKHLSLQIAATQPGDSAVYFCAEIPWGGSQGNLIFGKGTKLSVKP
Vbeta: DTGVSQDPRHKITKRGQNVTFRCDPISEHNRLYWYRQTLGQGPEFLTYFQNEAQLEKSRLLSDRFSAERPKGSFSTLEIQRTEQGDSAMYLCASSRDDREYFGEGSWLTVV
- binding result [2]: recognises
- binding result [3]: no recognition
- binding result [4]: no recognition
- binding result [5]: no recognition
- binding result [6]: no recognition
- binding result [7]: no recognition

Second part, the binder after the results:

- binding result [1]: recognises
B3: pt. 2-ex09TCR (TCR, V domains shown)
Valpha: GQNIDQPTEMTATEGAIVQINCTYQTSGFNGLFWYQQHAGEAPTFLSYNVLDGLEEKGRFSSFLSRSKGYSYLLLKELQMKDSASYLCAVDDGGATNKLIFGTGTLLAVQP
Vbeta: ETGVTQSPTHLIKTRGQQVTLRCSSQSGHNTVSWYQQALGQGPQFIFQYYREEENGRGNFPPRFSGLQFPNYSSELNVNALELDDSALYLCASSTRDRGTYEQYFGPGTRLTVT

- binding result [1]: recognises
B4: pt. 1-ex08TCR (TCR, V domains shown)
Valpha: KDQVFQPSTVASSEGAVVEIFCNHSVSNAYNFFWYLHFPGCAPRLLVKGSKPSQQGRYNMTYERFSSSLLILQVREADAAVYYCAVEDVPVNDYKLSFGAGTTVTVRA
Vbeta: DAGITQSPRHKVTETGTPVTLRCHQTENHRYMYWYRQDPGHGLRLIHYSYGVKDTDKGEVSDGYSVSRSKTEDFLLTLESATSSQTSVYFCAISAEGTYEQYFGPGTRLTVT
